The source of these data is PMC8298264, “Function of cofactor Akirin2 in the regulation of gene expression in model human neutrophil-like HL60 cells” (Bioscience Reports, 2021).

For the test, the system named is human HL60 cells. The test can be described thus: SWATH-MS proteomics, differential protein representation, akirin2 KO vs WT HL60 cells. The class given is cell-based. In short, it runs like this:
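WT and akirin2 KO HL60 lysates (150 µg, n=3 biological replicates) were FASP trypsin-digested and desalted. A spectral library was built by IDA from 3 µg digests, then 5 µg per sample went to variable-window SWATH DIA over a 120-min 5–30% acetonitrile gradient. Identifications were accepted at 1% global FDR, with total-area-sum normalization.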

Setting [1] is: KO vs WT HL60 cells, sheet "Under-represented in KO".
[2] abbreviates: SWATH-MS, akirin2 KO vs WT HL60 cells, over-represented in KO.

B1: sp¦Q02218¦ODO1_HUMAN (protein, UniProt Q02218 41-1023, looked up)
2-oxoglutarate dehydrogenase …: SAPVAAEPFLSGTSSNYVEEMYCAWLENPKSVHKSWDIFFRNTNAGAPPGTAYQSPLPLSRGSLAAVAHAQSLVEAQPNVDKLVEDHLAVQSLIRAYQIRGHHVAQLDPLGILDADLDSSVPADIISSTDKLGFYGLDESDLDKVFHLPTTTFIGGQESALPLREIIRRLEMAYCQHIGVEFMFINDLEQCQWIRQKFETPGIMQFTNEEKRTLLARLVRSTRFEEFLQRKWSSEKRFGLEGCEVLIPALKTIIDKSSENGVDYVIMGMPHRGRLNVLANVIRKELEQIFCQFDSKLEAADEGSGDVKYHLGMYHRRINRVTDRNITLSLVANPSHLEAADPVVMGKTKAEQFYCGDTEGKKVMSILLHGDAAFAGQGIVYETFHLSDLPSYTTHGTVHVVVNNQIGFTTDPRMARSSPYPTDVARVVNAPIFHVNSDDPEAVMYVCKVAAEWRSTFHKDVVVDLVCYRRNGHNEMDEPMFTQPLMYKQIRKQKPVLQKYAELLVSQGVVNQPEYEEEISKYDKICEEAFARSKDEKILHIKHWLDSPWPGFFTLDGQPRSMSCPSTGLTEDILTHIGNVASSVPVENFTIHGGLSRILKTRGEMVKNRTVDWALAEYMAFGSLLKEGIHIRLSGQDVERGTFSHRHHVLHDQNVDKRTCIPMNHLWPNQAPYTVCNSSLSEYGVLGFELGFAMASPNALVLWEAQFGDFHNTAQCIIDQFICPGQAKWVRQNGIVLLLPHGMEGMGPEHSSARPERFLQMCNDDPDVLPDLKEANFDINQLYDCNWVVVNCSTPGNFFHVLRRQILLPFRKPLIIFTPKSLLRHPEARSSFDEMLPGTHFQRVIPEDGPAAQNPENVKRLLFCTGKVYYDLTRERKARDMVGQVAITRIEQLSPFPFDLLLKEVQKYPNAELAWCQEEHKNQGYYDYVKPRLRTTISRAKPVWYAGRDPAAAPATGNKKTHLTELQRLLDTAFDLDVFKNFS
In the case of B1, under setting [1], the “Fold Change” value came to 0.5221 and the “Log (Fold Change)” value is listed as -0.2822.

B2: sp¦P20340¦RAB6A_HUMAN (protein, UniProt P20340 2-208, looked up)
Ras-related protein Rab-6A: STGGDFGNPLRKFKLVFLGEQSVGKTSLITRFMYDSFDNTYQATIGIDFLSKTMYLEDRTVRLQLWDTAGQERFRSLIPSYIRDSTVAVVVYDITNVNSFQQTTKWIDDVRTERGSDVIIMLVGNKTDLADKRQVSIEEGERKAKELNVMFIETSAKAGYNVKQLFRRVAAALPGMESTQDRSREDMIDIKLEKPQEQPVSEGGCSC
For the molecule B2, under setting [1], the “Fold Change” value worked out at 0.5176 and the “Log (Fold Change)” value is -0.286.

B3: sp¦O75746¦CMC1_HUMAN (protein, UniProt O75746 2-678, looked up)
Electrogenic …: AVKVQTTKRGDPHELRNIFLQYASTEVDGERYMTPEDFVQRYLGLYNDPNSNPKIVQLLAGVADQTKDGLISYQEFLAFESVLCAPDSMFIVAFQLFDKSGNGEVTFENVKEIFGQTIIHHHIPFNWDCEFIRLHFGHNRKKHLNYTEFTQFLQELQLEHARQAFALKDKSKSGMISGLDFSDIMVTIRSHMLTPFVEENLVSAAGGSISHQVSFSYFNAFNSLLNNMELVRKIYSTLAGTRKDVEVTKEEFAQSAIRYGQVTPLEIDILYQLADLYNASGRLTLADIERIAPLAEGALPYNLAELQRQQSPGLGRPIWLQIAESAYRFTLGSVAGAVGATAVYPIDLVKTRMQNQRGSGSVVGELMYKNSFDCFKKVLRYEGFFGLYRGLIPQLIGVAPEKAIKLTVNDFVRDKFTRRDGSVPLPAEVLAGGCAGGSQVIFTNPLEIVKIRLQVAGEITTGPRVSALNVLRDLGIFGLYKGAKACFLRDIPFSAIYFPVYAHCKLLLADENGHVGGLNLLAAGAMAGVPAASLVTPADVIKTRLQVAARAGQTTYSGVIDCFRKILREEGPSAFWKGTAARVFRSSPQFGVTLVTYELLQRWFYIDFGGLKPAGSEPTPKSRIADLPPANPDHIGGYRLATATFAGIENKFGLYLPKFKSPSVAVVQPKAAVAATQ
On to B3, for which, under setting [1], the “Fold Change” value was determined as 0.5201 and the “Log (Fold Change)” value is -0.2839.

B4: sp¦Q9Y276¦BCS1_HUMAN (protein, UniProt Q9Y276 2-419, looked up)
Mitochondrial chaperone BCS1: PLSDFILALKDNPYFGAGFGLVGVGTALALARKGVQLGLVAFRRHYMITLEVPARDRSYAWLLSWLTRHSTRTQHLSVETSYLQHESGRISTKFEFVPSPGNHFIWYRGKWIRVERSREMQMIDLQTGTPWESVTFTALGTDRKVFFNILEEARELALQQEEGKTVMYTAVGSEWRPFGYPRRRRPLNSVVLQQGLADRIVRDVQEFIDNPKWYTDRGIPYRRGYLLYGPPGCGKSSFITALAGELEHSICLLSLTDSSLSDDRLNHLLSVAPQQSLVLLEDVDAAFLSRDLAVENPVKYQGLGRLTFSGLLNALDGVASTEARIVFMTTNHVDRLDPALIRPGRVDLKEYVGYCSHWQLTQMFQRFYPGQAPSLAENFAEHVLRATNQISPAQVQGYFMLYKNDPVGAIHNAESLRR
Turning to B4, under setting [1], the “Fold Change” value was found to be 0.5207 and the “Log (Fold Change)” value is -0.2834.

B5: Alpha-2-macroglobulin (protein, UniProt P01023 24-1474, looked up)
Alpha-2-macroglobulin: SVSGKPQYMVLVPSLLHTETTEKGCVLLSYLNETVTVSASLESVRGNRSLFTDLEAENDVLHCVAFAVPKSSSNEEVMFLTVQVKGPTQEFKKRTTVMVKNEDSLVFVQTDKSIYKPGQTVKFRVVSMDENFHPLNELIPLVYIQDPKGNRIAQWQSFQLEGGLKQFSFPLSSEPFQGSYKVVVQKKSGGRTEHPFTVEEFVLPKFEVQVTVPKIITILEEEMNVSVCGLYTYGKPVPGHVTVSICRKYSDASDCHGEDSQAFCEKFSGQLNSHGCFYQQVKTKVFQLKRKEYEMKLHTEAQIQEEGTVVELTGRQSSEITRTITKLSFVKVDSHFRQGIPFFGQVRLVDGKGVPIPNKVIFIRGNEANYYSNATTDEHGLVQFSINTTNVMGTSLTVRVNYKDRSPCYGYQWVSEEHEEAHHTAYLVFSPSKSFVHLEPMSHELPCGHTQTVQAHYILNGGTLLGLKKLSFYYLIMAKGGIVRTGTHGLLVKQEDMKGHFSISIPVKSDIAPVARLLIYAVLPTGDVIGDSAKYDVENCLANKVDLSFSPSQSLPASHAHLRVTAAPQSVCALRAVDQSVLLMKPDAELSASSVYNLLPEKDLTGFPGPLNDQDNEDCINRHNVYINGITYTPVSSTNEKDMYSFLEDMGLKAFTNSKIRKPKMCPQLQQYEMHGPEGLRVGFYESDVMGRGHARLVHVEEPHTETVRKYFPETWIWDLVVVNSAGVAEVGVTVPDTITEWKAGAFCLSEDAGLGISSTASLRAFQPFFVELTMPYSVIRGEAFTLKATVLNYLPKCIRVSVQLEASPAFLAVPVEKEQAPHCICANGRQTVSWAVTPKSLGNVNFTVSAEALESQELCGTEVPSVPEHGRKDTVIKPLLVEPEGLEKETTFNSLLCPSGGEVSEELSLKLPPNVVEESARASVSVLGDILGSAMQNTQNLLQMPYGCGEQNMVLFAPNIYVLDYLNETQQLTPEIKSKAIGYLNTGYQRQLNYKHYDGSYSTFGERYGRNQGNTWLTAFVLKTFAQARAYIFIDEAHITQALIWLSQRQKDNGCFRSSGSLLNNAIKGGVEDEVTLSAYITIALLEIPLTVTHPVVRNALFCLESAWKTAQEGDHGSHVYTKALLAYAFALAGNQDKRKEVLKSLNEEAVKKDNSVHWERPQKPKAPVGHFYEPQAPSAEVEMTSYVLLAYLTAQPAPTSEDLTSATNIVKWITKQQNAQGGFSSTQDTVVALHALSKYGAATFTRTGKAAQVTIQSSGTFSSKFQVDNNNRLLLQQVSLPELPGEYSMKVTGEGCVYLQTSLKYNILPEKEEFPFALGVQTLPQTCDEPKAHTSFQISLSVSYTGSRSASNMAIVDVKMVSGFIPLKPTVKMLERSNHVSRTEVSSNHVLIYLDKVSNQTLSLFFTVLQDVPVRDLKPAIVKVYDYYETDEFAIAEYNAPCSKDLGNA
For B5, under setting [2], the “Fold Change” value came to 4.777 and the “Log (Fold Change)” value is 0.6792.
